Legend:
[1] = Ketoreductase (KRED101)/BspFDH2 coupled reduction of ethyl 4-chloro-3-oxobutanoate; type: biochemical
Description: NADP^+ (10 mM, 1 mL) and BspFDH2 (17 mg/mL, 500 μL) were then added and the reaction shaken for 30 minutes at room temperature. After 30 minutes, KRED101 (40 mg/mL, 300 μL) was added. The reaction was monitored by GC-MS (Rt˜3.1 minutes). After 15 hr, the reaction mixture was extracted by DCM (3×1 mL) and combined organic phases were dried and the solvent removed to afford ethyl 4-chloro-3-hydroxybutanoate (6 above, >99% conversion based on GC chromatogram and HPLC). The GC-MS data were collected as example 1a. Chiral HPLC was performed on a Chiralcel OB packed column (0.46 cm I.D.×25 cm L; Daicel Chemical Industries, Japan) at 217 nm, with an eluent of n-hexane/2-propanol (9.3:0.7, v/v) at a flow rate of 1 mL/min. IR, vmax (thin film), 3600-3100 (br, O—H), 1731 (s, C═O) cm^−1. ^1H-NMR (400 MHz, Chloroform-d): δ ppm 1.29 (t, J=7.07 Hz, 3H), 2.55-2.70 (m, 2H), 3.62 (dd, J=5.31, 2.78 Hz, 2H) 4.19 (q, J=7.07 Hz, 2H), 4.23-4.30 (m, 1H). ^13C-NMR (400 MHz, Chloroform-d): δ ppm 14.11, 38.41, 48.11, 61.01, 67.92, 171.78. GC-MS (CI^+): m/z Calcd for C6H12O3Cl [M+H]+=167, C6H15O3Cl [M+NH4]^+=184; Found: 167 (M+H)^+, 184 (M+NH4)^+. HPLC-UV/Vis: (tR=7.9 minutes, tS=9.4 minutes), >99% e.e. of S.
D-(S)-4-chloro-3-hydroxybutanoate ethyl ester is a key chiral pharmaceutical intermediate used in the enantioselective synthesis of, for example, slagenin B and C and HMG-CoA reductase inhibitors. […]

[2] = Cyclohexanone monooxygenase (CHMO)/BspFDH2 coupled Baeyer-Villiger oxidation of cyclohexanone; type: biochemical; details: coupled with CHMO
Description: By coupling the enzymatic action of BspFDH2 with that of cyclohexanone monooxygenase (CHMO), oxygen C—C bond insertion, a Baeyer-Viliger (B-V) oxidation (see FIG. 4b), converted (>99% conversion, complete within 4 hours) cyclohexanone (3) to caprolactone (4) with NADPH regeneration.
NADP+ (20 mM, 1 mL) and BspFDH2 (17 mg/mL, 500 μL) were then added and the reaction shaken for 30 minutes at room temperature. After 30 minutes, pre-dialysed CHMO (2 mg/mL, 300 μL) was then added and the reaction shaken at 37° C. The reaction was monitored by GC-MS (Rt˜3.1 minutes). After 4 hr, the reaction mixture was extracted by DCM (3×1 mL) and the combined organic phase was dried and the solvent removed to afford oxepan-2-one (4 above, >99% conversion based on GC chromatogram).

reaction complete within ([1]; coupled with KRED101): ≤ 30 min
reaction complete within [2]: ≤ 4 h
B1: Bsp383FDH: wild type FDH from Burkholderia sp 383, Seq ID No: 1, C-terminal His-tagged (protein, listed as Burkholderia sp.)
chain: MATVLCVLYPDPVDGYPPRYVRDAIPVITHYADGQTAPTPAGPPGFQPGELVGCVSGALGLRGYMEAHGHTLIVTSDKDSPDSEFERRLPEADVVISQPFWPAYLTAERIARAPKLKLALTAGIGSDHVDLDAAARARITVAEVTGSNSISVAEHVVMTTLALVRNYLPSHAIAQQGGWNIADCVSRSYDVEGMHFGTVGAGRIGLAVLRRLKPFGLQLHYTQRHRLDASIEQELGLTYHADAASLASAVDIVNLQIPLYPSTEHLFDAAMIARMKRGAYLINTARAKLVDRDAVVNALTSGHLAGYGGDVWFPQPAPADHPWRTMPFNGMTPHISGTSLSAQARYAAGTLEILQCWFDGKPIRNEYLIVDGGTLAGTGAQSYRLT
modifications: C-terminal His tag
conversion of ethyl 4-chloro-3-oxobutanoate to ethyl 4-chloro-3-hydroxybutanoate ([1]; coupled with KRED101, NADPH regeneration, GC and HPLC): > 99%
conversion of cyclohexanone to caprolactone (oxepan-2-one) ([2]; NADPH regeneration, GC): > 99%

Reference: patent US20100086958A1, “NOVEL ENZYME” (priority 2008, published 2010)
